# PMC3669278, “An Iron 13S-Lipoxygenase with an α-Linolenic Acid Specific Hydroperoxidase Activity from Fusarium oxysporum” (PLoS ONE, 2013)
# T1: FoxLOX (Fusarium oxysporum, UniProt A0A0J9UTC2)
# T1 construct: gene FOXG_04807; full-length ORF, 744 residues, in pET28a with N-terminal hexa-His tag (removal not mentioned); E. coli Bl21star; non-heme iron; iron-ligand residues His-408, His-413, His-595, Asp-599, Ile-744
# T1 sequence (A0A0J9UTC2 1-744): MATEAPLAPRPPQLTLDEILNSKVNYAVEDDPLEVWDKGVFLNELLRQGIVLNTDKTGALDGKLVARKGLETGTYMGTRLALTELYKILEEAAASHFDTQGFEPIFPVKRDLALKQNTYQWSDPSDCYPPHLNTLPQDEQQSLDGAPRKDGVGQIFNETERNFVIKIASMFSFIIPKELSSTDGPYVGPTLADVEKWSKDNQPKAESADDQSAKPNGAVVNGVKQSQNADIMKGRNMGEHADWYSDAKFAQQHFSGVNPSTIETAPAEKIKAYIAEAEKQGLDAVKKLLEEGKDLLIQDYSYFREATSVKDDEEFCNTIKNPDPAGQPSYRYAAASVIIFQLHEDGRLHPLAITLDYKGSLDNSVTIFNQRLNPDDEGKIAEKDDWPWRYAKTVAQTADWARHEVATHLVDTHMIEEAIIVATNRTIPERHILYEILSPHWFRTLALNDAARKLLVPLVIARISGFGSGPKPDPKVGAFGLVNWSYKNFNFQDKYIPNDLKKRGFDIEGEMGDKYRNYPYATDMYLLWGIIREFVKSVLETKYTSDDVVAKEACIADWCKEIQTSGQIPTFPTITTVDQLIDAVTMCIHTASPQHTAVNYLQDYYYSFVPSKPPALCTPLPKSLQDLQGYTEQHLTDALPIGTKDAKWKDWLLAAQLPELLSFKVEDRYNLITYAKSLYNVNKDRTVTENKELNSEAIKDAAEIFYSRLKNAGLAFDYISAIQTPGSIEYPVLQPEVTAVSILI
# Assays:
# FoxLOX = biological target: T1, FoxLOX; assay: initial rate of conjugated diene formation at […] nm, Michaelis-Menten fit; assay type: biochemical; details: 50 mM Tris/HCl pH 8.0, room temperature, air-equilibrated, fatty acid sodium salt
# [1] = biological target: FoxLOX (Fusarium oxysporum lipoxygenase, iron 13S-lipoxygenase) (Fusarium oxysporum f. sp. lycopersici strain 4287); assay: SEC; S200pg 26/60 column; 50 mM Tris/HCl pH 8.0, 10% glycerol, 125 mM NaCl; affinity-purified FoxLOX; apparent mass about 173 kDa against about 80 kDa by SDS-PAGE and 83.5 kDa theoretical
# purified protein = substrate: CCCCC/C=C\C/C=C\C/C=C\C/C=C\CCCC(=O)O; assay: purified protein; assay type: biochemical, Fusarium oxysporum; details: 50 mM Tris/HCl pH 8.0, room temperature, air-equilibrated, fatty acid sodium salt
molecule,measurement,setting,value
CCCCC/C=C\C/C=C\CCCCCCCC(=O)O [18∶2(n-6)],Km,FoxLOX,6.89 ± 0.79 µM
CC/C=C\C/C=C\C/C=C\CCCCCCCC(=O)O [18∶3(n-3)],Km,FoxLOX,31.7 ± 3.79 µM
CCCCC/C=C\C/C=C\C/C=C\CCCCC(=O)O [18∶3(n-6)],Km,FoxLOX,34.8 ± 5.38 µM
"FoxLOX (Fusarium oxysporum lipoxygenase, iron 13S-lipoxygenase) (enzyme)",stoichiometry N,[1],2
"FoxLOX (Fusarium oxysporum f. sp. lycopersici 4287) (protein, full-length ORF, 744 residues, in pET28a with N-terminal hexa-His tag (removal not mentioned); E. coli Bl21star; non-heme iron; iron-ligand residues His-408, His-413, His-595, Asp-599, Ile-744) MATEAPLAPRPPQLTLDEILNSKVNYAVEDDPLEVWDKGVFLNELLRQGIVLNTDKTGALDGKLVARKGLETGTYMGTRLALTELYKILEEAAASHFDTQGFEPIFPVKRDLALKQNTYQWSDPSDCYPPHLNTLPQDEQQSLDGAPRKDGVGQIFNETERNFVIKIASMFSFIIPKELSSTDGPYVGPTLADVEKWSKDNQPKAESADDQSAKPNGAVVNGVKQSQNADIMKGRNMGEHADWYSDAKFAQQHFSGVNPSTIETAPAEKIKAYIAEAEKQGLDAVKKLLEEGKDLLIQDYSYFREATSVKDDEEFCNTIKNPDPAGQPSYRYAAASVIIFQLHEDGRLHPLAITLDYKGSLDNSVTIFNQRLNPDDEGKIAEKDDWPWRYAKTVAQTADWARHEVATHLVDTHMIEEAIIVATNRTIPERHILYEILSPHWFRTLALNDAARKLLVPLVIARISGFGSGPKPDPKVGAFGLVNWSYKNFNFQDKYIPNDLKKRGFDIEGEMGDKYRNYPYATDMYLLWGIIREFVKSVLETKYTSDDVVAKEACIADWCKEIQTSGQIPTFPTITTVDQLIDAVTMCIHTASPQHTAVNYLQDYYYSFVPSKPPALCTPLPKSLQDLQGYTEQHLTDALPIGTKDAKWKDWLLAAQLPELLSFKVEDRYNLITYAKSLYNVNKDRTVTENKELNSEAIKDAAEIFYSRLKNAGLAFDYISAIQTPGSIEYPVLQPEVTAVSILI",Km,purified protein,3.37 ± 0.55 µM
same,kcat,purified protein,1.71 ± 0.0632 s⁻¹
same,kcat/Km,purified protein,507000 M⁻¹ s⁻¹
